Molecular target: T1, human DNA polymerase α catalytic subunit p180 with the N-terminus (residues 1–334) deleted (human, UniProt P09884 335-1462)
T1 sequence (looked up): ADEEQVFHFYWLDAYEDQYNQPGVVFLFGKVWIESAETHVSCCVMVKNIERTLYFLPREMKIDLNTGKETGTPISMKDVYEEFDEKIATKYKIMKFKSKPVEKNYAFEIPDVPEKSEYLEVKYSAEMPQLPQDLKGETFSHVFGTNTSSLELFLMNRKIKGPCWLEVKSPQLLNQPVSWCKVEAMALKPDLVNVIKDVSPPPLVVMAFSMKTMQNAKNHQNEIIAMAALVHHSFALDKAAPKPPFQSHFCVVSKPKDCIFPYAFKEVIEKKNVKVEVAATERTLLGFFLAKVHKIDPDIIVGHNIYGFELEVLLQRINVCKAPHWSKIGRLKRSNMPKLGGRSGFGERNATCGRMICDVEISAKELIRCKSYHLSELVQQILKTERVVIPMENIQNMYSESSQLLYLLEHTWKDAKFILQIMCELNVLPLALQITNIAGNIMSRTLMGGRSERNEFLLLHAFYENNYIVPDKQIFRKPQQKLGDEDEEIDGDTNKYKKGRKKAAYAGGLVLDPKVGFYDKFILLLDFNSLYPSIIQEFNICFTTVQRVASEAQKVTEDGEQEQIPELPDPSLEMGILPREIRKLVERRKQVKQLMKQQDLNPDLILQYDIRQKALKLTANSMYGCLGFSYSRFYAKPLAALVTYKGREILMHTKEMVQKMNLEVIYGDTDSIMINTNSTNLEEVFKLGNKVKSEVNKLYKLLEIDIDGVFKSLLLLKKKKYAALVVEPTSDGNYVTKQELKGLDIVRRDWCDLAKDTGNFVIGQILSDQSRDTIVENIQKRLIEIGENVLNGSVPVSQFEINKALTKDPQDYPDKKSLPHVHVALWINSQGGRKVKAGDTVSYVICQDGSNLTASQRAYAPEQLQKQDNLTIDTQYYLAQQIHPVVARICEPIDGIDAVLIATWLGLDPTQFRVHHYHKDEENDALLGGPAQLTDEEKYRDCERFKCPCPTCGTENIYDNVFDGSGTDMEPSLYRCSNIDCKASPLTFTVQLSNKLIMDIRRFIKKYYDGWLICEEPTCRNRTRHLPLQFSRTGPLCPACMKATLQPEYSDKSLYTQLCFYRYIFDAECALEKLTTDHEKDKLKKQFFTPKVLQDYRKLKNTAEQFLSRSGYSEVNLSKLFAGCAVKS
Test: cryo-EM structure

binding result: binds
B1: human DNA polymerase α accessory subunit p70 (natural protein, UniProt Q14181 1-598, looked up)
chain: MSASAQQLAEELQIFGLDCEEALIEKLVELCVQYGQNEEGMVGELIAFCTSTHKVGLTSEILNSFEHEFLSKRLSKARHSTCKDSGHAGARDIVSIQELIEVEEEEEILLNSYTTPSKGSQKRAISTPETPLTKRSVSTRSPHQLLSPSSFSPSATPSQKYNSRSNRGEVVTSFGLAQGVSWSGRGGAGNISLKVLGCPEALTGSYKSMFQKLPDIREVLTCKIEELGSELKEHYKIEAFTPLLAPAQEPVTLLGQIGCDSNGKLNNKSVILEGDREHSSGAQIPVDLSELKEYSLFPGQVVIMEGINTTGRKLVATKLYEGVPLPFYQPTEEDADFEQSMVLVACGPYTTSDSITYDPLLDLIAVINHDRPDVCILFGPFLDAKHEQVENCLLTSPFEDIFKQCLRTIIEGTRSSGSHLVFVPSLRDVHHEPVYPQPPFSYSDLSREDKKQVQFVSEPCSLSINGVIFGLTSTDLLFHLGAEEISSSSGTSDRFSRILKHILTQRSYYPLYPPQEDMAIDYESFYVYAQLPVTPDVLIIPSELRYFVKDVLGCVCVNPGRLTKGQVGGTFARLYLRRPAADGAERQSPCIAVQVVRI
